Here are results for two substances from US20200181211A1.

Assay [1] concerns the target soluble plasma fibronectin (Fn) isolated from human plasma (human) (UniProt P02751). The experiment in a line: fluorescence anisotropy titration, 100 nM labelled peptide, Fn 0 to 1.4 µM in PBS, one-site-binding model. In general terms: In fluorescence polarisation assays a small probe gives low polarisation when free and higher when bound to something large.
Assay [2] addresses manually pulled Fn fibers (relaxed, fibrillar fibronectin from human plasma, 5% Fn-Cy5) (human) (UniProt P02751). Nature of the assay: titration of fluorescent peptide on relaxed manually pulled Fn fibers, confocal intensity ratio peptide/Fn-Cy5, Hill fit.
The target is the same in assay [3]. The experiment in a line: displacement assay on relaxed manually pulled Fn fibers, competitor of FnBPA5-Alexa488.

For FnBPA5-Alexa488 (peptide), the Kd – broadly, a measure of binding affinity in units of concentration – in assay [1] is 75 nM; in assay [2], 28 nM. In the case of natIn-FnBPA5 (cold labeled) (peptide), the IC50 – broadly, the concentration at which inhibition is half-maximal – in assay [3] was 49 nM. That is a double-digit nanomolar value.
